According to patent publication US20260297172 (published 2026):
Where a chain is given by its changes, count along the chain named. Values belong to the binder of their own block, whether it stands above or below them.

How the values were obtained:
S100A8/A9 [1] = biological target: T1, S100A8/A9 (human, UniProt P05109); experiment: BLI
T1 chain 1: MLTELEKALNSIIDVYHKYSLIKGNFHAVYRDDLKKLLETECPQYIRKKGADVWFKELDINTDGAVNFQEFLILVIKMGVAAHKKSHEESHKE
T1 chain 2: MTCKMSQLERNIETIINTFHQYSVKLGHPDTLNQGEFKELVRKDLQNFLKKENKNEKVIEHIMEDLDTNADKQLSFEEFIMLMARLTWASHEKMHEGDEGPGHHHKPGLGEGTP

S100A8/A9 [2] = biological target: T1, S100A8/A9; experiment: competition ELISA, blocking CD69 binding
S100A9 = biological target: T2, S100A9 (human, UniProt P06702); experiment: ELISA
T2 chain: T1 chain 2

S100A8 = biological target: T3, S100A8 (human, UniProt P05109); experiment: ELISA
T3 chain: T1 chain 1

B1: ROIS-2 (antibody, V domains shown)
VH: NVQLVESGGGLIHPGGSLSLSCKASGFSFSSGCWVCWVRQAPGKGLEWVACIYTGDGDTYYADSVKGRFTISRTSSKTTVYLQMNSLRAEDTAVYYCASPQPGDITYLGFWGQGTLVTVSS
VL: DIHMTQSPSSLSASVGDTVTITCQASQNINSYLSWYQQKPGKAPKLLISLASDLASGVPSRFSGSESGTDYTLTISSLQPEDFATYYCQGYFADSGSSGRSWAFGQGTKVEIKR
- Kd (S100A8/A9 [1]): 0.608 nM

B2: ROIS-3 (antibody, V domains shown)
VH: QVSLEESGGDLVQPGGSLRLACVASGFSFSSGCWVCWVRQAPGKGLEWVSCIYTGDGDTYYANSVRGRFTVSRQNSTTSVYLQMNSLRADDTALYFCASPQPGDITYLGFWGPGTLVTVSS
VL: B1 VL
- Kd (S100A8/A9 [1]): 0.0477 nM

B4: ROIS-4 (antibody, V domains shown)
VH: B2 VH with Q74K
VL: B1 VL
- Kd (S100A8/A9 [1]): 1.76 nM

B5: ROIS-1 (antibody, V domains shown)
VH: B1 VH with K66R
VL: B1 VL with K39E
- Kd (S100A8/A9 [1]): 0.789 nM

B6: 8H6-mIgG2a (antibody, V domains shown)
VH: CQSLEESGGDLVKPEGSLTLTCKASGFSFSSGCWVCWVRQAPGKGLEWIACIYTGDGDTYYANWARGRFTVSRTSSTTVTLQLTSLTAADTATYFCASPQPGDITYLGFWGPGTLVTVSS
VL: DIVMTQTPASVSEPVGGTVTIKCQASQNINSYLSWYQQRPGQPPKLLISLASDLASGVPSRFKGSESGTDYTLTISDLECADAATYYCQGYFADSGSSGRSWAFGGGTEVVVQG
- IC50 (S100A8/A9 [2]): ~1.25 µg/mL

B8: 8H6-HC (antibody, V domains shown)
VH: B6 VH
VL: B6 VL
- Kd (S100A8/A9 [1]): 1.37 nM

B11: 6C8-mIgG2a (antibody, V domains shown)
VH: QEQLVESGGGLVTLGGSLKLSCKASGIDFSIYGISWVRQAPGKGLEWIAYIYPDYSTTDYASWVNGRFTISFDNAQNTVFLEMTSLTAADTATYFCARRYSGYYGLWGPGTLVTVSS
VL: ALVMTQTPSSVSAPVGGTVTIKCQASQSISSYLAWYQQKPGQRPKLLIYGASSLESGVPSRFKGSGSGTEYTLTISDLECDDAATYYCQGAHAGSSADAFGGGTEVVVKG
- IC50 (S100A8/A9 [2]): ~2.5 µg/mL

Now from value to binder:

- Kd (S100A8/A9 [1]): 0.623 nM
B3: ROIS-5 (antibody, V domains shown)
VH: B2 VH with Q74R
VL: B1 VL

- binding result (S100A9): no binding
B7: 8H6 (antibody, V domains shown)
VH: B6 VH
VL: B6 VL

- binding result (S100A9): no binding
- binding result (S100A8): no binding
B9: 14G9 (antibody, V domains shown)
VH: QEQLVESGGGLVQPEGSLTLTCTASGFSFSSDYYMCWVRQAPGKGLEWIACIGGGYGGSPYYATWAKGRFTISKTSSTAVTLQMTSLTAADTATHFCARGVPGSSCFFDLWGPGTLVTVSS
VL: DVAMTQTPASVSEPVGGTVTIKCQASQSIGSSLAWYQQKSGQPPKLLIYDAFDLASGVSSRFKGSGSGTEYTLTISDLECADAATYFCLGGYYDANTFGGGTEVVVKG

- binding result (S100A8): no binding
B10: 6C8 (antibody, V domains shown)
VH: B11 VH
VL: B11 VL
